Assays:
[1] = biological target: CED3/ICE homology region in MACHα1 (Homo sapiens, UniProt Q14790); settings: 5 mM; bacterial extracts; listed as iodacetic acid
[2] = biological target: T1, intracellular domain of FAS-R (Homo sapiens, UniProt P25445); test: Cross immunoprecipitation with co-expressed FAS-R in HeLa cells; assay type: binding
T1 construct: expressed in transfected cells; host or cells: HeLa HtTA-1
T1 sequence (P25445 26-335): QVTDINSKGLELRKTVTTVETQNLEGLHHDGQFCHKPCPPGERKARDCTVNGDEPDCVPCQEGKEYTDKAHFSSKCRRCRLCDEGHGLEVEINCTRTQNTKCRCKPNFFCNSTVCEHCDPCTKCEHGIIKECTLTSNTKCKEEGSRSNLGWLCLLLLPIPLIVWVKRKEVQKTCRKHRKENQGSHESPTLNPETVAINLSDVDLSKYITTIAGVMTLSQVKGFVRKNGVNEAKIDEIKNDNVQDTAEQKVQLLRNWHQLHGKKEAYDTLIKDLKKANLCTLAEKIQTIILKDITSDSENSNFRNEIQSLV
Method: (§1) MORT-1, N-linked to the FLAG octapeptide, (FLAG-MORT-1; Eastman Kodak, New Haven, Conn., USA), Fas-IC, FAS-R, p55-R, a chimera comprised of the extracellular domain of p55-R (amino acids 1-168) fused to the transmembrane and intracellular domain of FAS-R (amino acids 153-319), and the luciferase cDNA which serves as a control, were expressed in HeLa cells. Expression was carried out using a tetracycline-controlled expression vector, in a HeLa cell clone (HtTA-1) that expresses a tetracycline-controlled transactivator (Gossen and Bujard, 1992; see also Boldin et al, 1995). Metabolic labeling with [^35S]methionine and [^35S] cysteine (DUPONT, Wilmington, Del., USA and Amersham, Buckinghamshire, England) was performed 18 hours after transfection, by a further 4 h incubation at 37° C. in Dulbecco's modified Eagle's medium lacking methionine and cysteine, but supplemented with 2% dialyzed fetal calf serum. The cells were then lysed in RIPA buffer (10 mM Tris-HCl, pH 7.5, 150 mM NaCl, 1 NP-40, 1% deoxycholate, 0.1% SDS and 1 mM EDTA) and the lysate was precleared by incubation with irrelevant rabbit antiserum (3 μl/ml) and Protein G Sepharose beads (Pharmacia, Uppsala, Sweden; 60 μl/ml). […]

[3] = biological target: T2, FAS-R-p55-R chimera (p55-FAS) (Homo sapiens, UniProt P19438+P25445); test: Cross immunoprecipitation with co-expressed p55-FAS chimera in HeLa cells; assay type: binding
T2 construct: transmembrane and intracellular domain of FAS-R (amino acids 153-319); expressed in transfected cells; host or cells: HeLa HtTA-1
T2 sequence (P19438+P25445 with tags, fused parts or gaps): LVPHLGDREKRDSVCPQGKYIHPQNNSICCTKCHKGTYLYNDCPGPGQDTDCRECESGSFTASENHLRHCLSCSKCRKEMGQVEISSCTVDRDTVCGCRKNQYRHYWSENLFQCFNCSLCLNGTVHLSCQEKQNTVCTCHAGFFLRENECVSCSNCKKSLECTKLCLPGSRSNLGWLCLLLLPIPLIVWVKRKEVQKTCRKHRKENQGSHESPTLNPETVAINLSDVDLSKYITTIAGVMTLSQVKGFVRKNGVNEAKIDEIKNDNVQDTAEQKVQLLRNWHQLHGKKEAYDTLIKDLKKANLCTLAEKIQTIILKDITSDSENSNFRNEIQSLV
Method: as §1

[4] = system: GST-Fas-IC fusion protein; test: In vitro binding to GST-Fas-IC on glutathione beads; design: species or system human or mouse; settings: [35S]-labeled protein from HeLa extracts; SDS-PAGE, autoradiography
Method: Glutathione S-transferase (GST) fusions with the wild type or a mutated Fas-IC were produced and adsorbed to glutathione-agarose beads; see Boldin et al, 1995; Ausubel et al, 1994; Frangioni and Neel, 1993). Binding of metabolically-labeled FLAG-MORT-1 fusion protein to GST-Fas-IC was assessed by incubating the beads for 2 h at 4° C. with extracts of HeLa cells, metabolically labeled with [^35S]methionine (60 μCi/ml), that express FLAG-MORT-1. The extracts were prepared in a buffer containing 50 mM Tris-HCl, pH 7.5, 150 mM NaCl, 0.1% NP-40; 1 mM dithioteitol, 1 mM EDTA, 1 mM phenylmethylsulfonyl fluoride, 20 μg/ml Aprotonin, […] Leupeptin, 10 mM-sodium fluoride and 0.1 mM sodium vanadate (1 ml per 5×10^5 cells).
Expression of MORT-1 molecules fused at their N terminus with the. FLAG octapeptide (FLAG-MORT-1) yielded in HeLa cells proteins of four distinct sizes—about […], 28, 32, and 34 kD. […] Thus, the in vitro interaction was evaluated by assessing, by autoradiography following SDS-PAGE, the binding of [35] metabolically labeled MORT-1, produced in transfected HeLa cells as a fusion with the FLAG octapeptide (FLAG-MORT-1), to GST, GST fusion with the human or mouse Fas-IC (GST-huFas-IC, GST-mFas-IC) or to GST fusion with Fas-IC containing a Ile to Ala replacement mutation at position 225.

Sequence of CED3/ICE homology region in MACHα1 (Q14790 217-479): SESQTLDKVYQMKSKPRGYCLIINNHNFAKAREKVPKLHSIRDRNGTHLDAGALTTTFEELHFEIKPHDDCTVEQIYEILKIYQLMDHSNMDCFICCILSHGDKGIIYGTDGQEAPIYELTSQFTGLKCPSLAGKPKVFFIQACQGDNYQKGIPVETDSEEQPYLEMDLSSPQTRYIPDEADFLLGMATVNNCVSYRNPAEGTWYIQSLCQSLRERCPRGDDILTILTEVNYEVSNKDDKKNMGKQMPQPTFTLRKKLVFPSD

`O=C(O)CI` [iodoacetic acid] was tested, and the “effect on cleavage of Ac-DEVD-AMC by the MACHα1 CED3/ICE homology region” value [1] was “blocked”.

B1: FLAG-MORT-1: MORT-1, N-linked to the FLAG octapeptide (protein)
chain: VNQAPECRFGGGILGPLGKRRDLARASEPRTEGARRAGPQPRPLADPAMDPFLVLLHSVSSSLSSSELTELKFLCLGRVVKRKLERVQSGLDLFSMLLEQNDLEPGHTELLRELLASLRRHDLLRRVDDFEAGAAAGAAPGEEDLCAAFNVICDNVGKDWRRLARQLKVSDTKIDSIEDRYPRNLTERVRESLRIWKNTEKENATVAHLVGALRSCQMNLVADLVQEVQQARDLQNRSGAMSPMSWNSDASTSEAS
modifications: left off: small tags and cut ends
notes: MORT-1, N-linked to the FLAG octapeptide
For B1, the “binding to intracellular domain of FAS-R when co-expressed in HeLa cells” value [2] was “capable of binding”, the “binding to intracellular domain of FAS-R-p55-R chimera when co-expressed in HeLa cells” value [3] was “capable of binding” and the “in vitro binding to GST-Fas-IC” value [4] was “showed ability to bind”.

From patent US7799901B2, “Modulators of the function of FAS receptors and other proteins” (Yeda Research and Development Co. Ltd., priority 1995, dated 2010)
